Substitutions are numbered along the chain they refer to. Names may count otherwise. * marks the point of attachment. FITC = O=C1OC2(c3ccc(O)cc3Oc3cc(O)ccc32)c2ccc(NC(=S)*)cc21; βAla = NCCC(=O)O

As usually defined, the Kd is the equilibrium constant for the complex coming apart. The low end stands for higher affinity, the high end for lower affinity.

Experiment [1] has as its target T1, NorA (S. aureus quinolone efflux pump), C-terminal decahistidine tag, in PMAL-C8 amphipol (S. aureus) (UniProt Q5HHX4).
T1 sequence: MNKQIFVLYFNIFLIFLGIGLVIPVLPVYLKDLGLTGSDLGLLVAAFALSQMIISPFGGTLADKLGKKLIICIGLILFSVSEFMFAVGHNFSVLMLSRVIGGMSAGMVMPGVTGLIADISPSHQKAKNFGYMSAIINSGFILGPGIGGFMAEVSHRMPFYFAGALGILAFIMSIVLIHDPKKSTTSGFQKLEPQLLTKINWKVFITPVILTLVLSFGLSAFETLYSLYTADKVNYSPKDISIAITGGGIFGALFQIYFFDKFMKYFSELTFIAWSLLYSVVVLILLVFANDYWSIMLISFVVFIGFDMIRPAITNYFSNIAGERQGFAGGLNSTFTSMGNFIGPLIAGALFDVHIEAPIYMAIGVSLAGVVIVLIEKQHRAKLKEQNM
The experiment in a line: MST.

The target in experiment [2] is NorA (S. aureus quinolone efflux pump), C-terminal decahistidine tag, in PMAL-C8 amphipol (S. aureus, UniProt Q5HHX4). The experiment in a line: MST.
The target of experiment [3] is T2, NorA (S. aureus quinolone efflux pump), C-terminal decahistidine tag, in PMAL-C8 amphipol (S. aureus, UniProt Q5HHX4 1-388).
T2 sequence: T1 sequence
The experiment in a line: fluorescence polarisation. A general note: In fluorescence polarisation assays a small probe gives low polarisation when free and higher when bound to something large.

B1: Fab36 R134A (CDRH3 mutant) (Fab, V domains shown)
VH: EVQLVESGGGLVQPGGSLRLSCAASGFTFSSSSIHWVRQAPGKGLEWVASISSSSGSTSYADSVKGRFTISADTSKNTAYLQMNSLRAEDTAVYYCARYSRYYYYAWAVGGYWGGLDYWGQGTLVTVFN
VL: DIQMTQSPSSLSASVGDRVTITCRASQSVSSAVAWYQQKPGKAPKLLIYSASSLYSGVPSRFSGSRSGTDFTLTISSLQPEDFATYYCQQSSSSLITFGQGTKVEIK
B1 displayed a Kd in experiment [1] of more than 14000 nM.

B2: Fab25 (synthetic antigen-binding fragment against NorA) (Fab, V domains shown)
VH: EVQLVESGGGLVQPGGSLRLSCAASGFTFSSSSIHWVRQAPGKGLEWVASISSSSGSTSYADSVKGRFTISADTSKNTAYLQMNSLRAEDTAVYYCARWETGYYPYWRMYGFYWALDYWGQGTLVTVFN
VL: B1 VL
B2: binding in experiment [2] was put at a Kd of 1200 nM. This counts as single-digit micromolar.

B3: Fab36 (synthetic antigen-binding fragment against NorA) (Fab, V domains shown)
VH: B1 VH with A108R
VL: B1 VL
As to B3, in experiment [2], the Kd came to 140 nM.

B4: Fab36 W133A (CDRH3 mutant) (Fab, V domains shown)
VH: B1 VH with W107A, A108R
VL: B1 VL
Turning to B4, the “fold reduction of binding affinity against Fab36” value in experiment [2] is approximately 20 fold.

B5: FITC-NPI-1 (fluorescent analog of NPI-1) (peptide)
peptide: {FITC-βAla}-YYYYAWRVGGYWR-NH2
SMILES: CC(C)[C@H](NC(=O)[C@H](CCCNC(=N)N)NC(=O)[C@H](Cc1c[nH]c2ccccc12)NC(=O)[C@H](C)NC(=O)[C@H](Cc1ccc(O)cc1)NC(=O)[C@H](Cc1ccc(O)cc1)NC(=O)[C@H](Cc1ccc(O)cc1)NC(=O)[C@H](Cc1ccc(O)cc1)NC(=O)CCNC(=S)Nc1ccc2c(c1)C(=O)OC21c2ccc(O)cc2Oc2cc(O)ccc21)C(=O)NCC(=O)NCC(=O)N[C@@H](Cc1ccc(O)cc1)C(=O)N[C@@H](Cc1c[nH]c2ccccc12)C(=O)N[C@@H](CCCNC(=N)N)C(N)=O
In experiment [3], B5 yielded a Kd of 10 nM.

Values taken from publication PMC9246859 (Nature chemical biology, 2022).
